# Experimental data reported in patent US20220112240.
# Assays:
# [1] = tested on: T1, D-2 FLAG (branched peptide; branching symbol printed as an image)
# T1 sequence 1: FFKY
# T1 sequence 2: DYKDDDDKG
# [2] = tested on: T2, L-2 FLAG (branched peptide; branching symbol printed as an image)
# T2 sequence 1: XFKY
# T2 sequence 2: DYKDDDDKG
substance,measurement,setting,value
"enterokinase (ENTK), enzyme added in solution",circular dichroism after ENTK cleavage of the branch,[1],the cleavage of the branch results in largely β-sheet (D-1) and random-coil (FLAG-tag) like secondary structures ... as well as for those of D-2 FLAG and L-2 FLAGs
same,circular dichroism after ENTK cleavage of the branch,[2],the cleavage of the branch results in largely β-sheet (D-1) and random-coil (FLAG-tag) like secondary structures ... as well as for those of D-2 FLAG and L-2 FLAGs
